This is an account of results in the RNAGym collection of RNA variant scans (doi:10.1073/pnas.2313332121).

Fewer inactive variants are shown than the library holds.

B1: TPR 5TU (parent)
chain: GGAUCUUCUCGAUCUAACAAAAAAGACAAAUCUGCCACAAAGCUUGAGAGCAUCUUCGGAUGCAGAGGCGGCAGCCUUCGGUGGCGCGAUAGCGCCAACGUUCUCAACUAUGACACGCAAAACGCGUGCUCCGUUGAAUGGAGUUUAUCAUG

Variants of B1 are the subject of the series. Description: polymerase ribozyme fitness, log enrichment relative to wild type (log ratio); higher = more active; in vitro selection for triplet polymerase activity. The procedure, abridged:
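Only genotypes with ≥10 input reads and ≥1 read per output were kept after Illumina sequencing of input and output libraries. These libraries were PCR-built, transcribed mutants of each subunit of a heterodimeric triplet polymerase ribozyme, each put through one triplicate in vitro selection round with frozen incubation at −7 °C, gel excision of extended constructs, streptavidin-bead capture and RT-PCR. Fitness is a logarithmic ratio of genotype enrichment to wild-type enrichment, from inverse-variance-weighted replicate averages, with the logarithm in base 2.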
In the case of U102G U127C, the “polymerase ribozyme fitness (log ratio)” value was -4.17.
Regarding C103G G143U, the “polymerase ribozyme fitness (log ratio)” value was not above -4.2.
Take C95U C116G U135A: the “polymerase ribozyme fitness (log ratio)” value is -2.67.
In the case of C96U A115C, the “polymerase ribozyme fitness (log ratio)” value is -2.68.
The figure for U102G G141C is -3.94; for U109A G124A G140C it is not above -4.2.
As for C105U U135A, the “polymerase ribozyme fitness (log ratio)” value is 0.0587.
As for A120U U135C, the “polymerase ribozyme fitness (log ratio)” value was -2.85.
In the case of A119U U134A, the “polymerase ribozyme fitness (log ratio)” value is -2.99.
For C96U U104G, the “polymerase ribozyme fitness (log ratio)” value was -1.59.
In the case of C96G U139G G140U C149A, the “polymerase ribozyme fitness (log ratio)” value is not above -4.2.
For C96G A142G U145G A147U, the “polymerase ribozyme fitness (log ratio)” value is -2.85.
The result for C99G U146G reads -1.32; that for A98U A147C, 0.168; that for C116U U145C U148C, -2.77.
The figure for U102G A142U is -3.35.
Take C95U U130G: the “polymerase ribozyme fitness (log ratio)” value is -2.55.
With G100A G124A, the “polymerase ribozyme fitness (log ratio)” value was not above -4.2.
Consider G124U G140A, for which the “polymerase ribozyme fitness (log ratio)” value is -4.
For the variant C96U G128U U146C, the “polymerase ribozyme fitness (log ratio)” value was -3.35.
Turning to U109G U139C A142U, the “polymerase ribozyme fitness (log ratio)” value is -3.41.
On to C96G G141A, for which the “polymerase ribozyme fitness (log ratio)” value was -0.288.
As for A98U U134G, the “polymerase ribozyme fitness (log ratio)” value is -2.65.
C95U C118U: the “polymerase ribozyme fitness (log ratio)” value is -1.09.
On to C103A U146C, for which the “polymerase ribozyme fitness (log ratio)” value is -1.49.
The result for U104G A113U U127A G141A reads not above -4.2; that for C96U G124U, -0.372.
C96U G124A: the “polymerase ribozyme fitness (log ratio)” value was -0.382.
As to C108G G143C A147C, the “polymerase ribozyme fitness (log ratio)” value was not above -4.2.
As for C125U U145C, the “polymerase ribozyme fitness (log ratio)” value is -0.634.
The figure for C96U C132A is -1.63.
Consider C96A A150C, for which the “polymerase ribozyme fitness (log ratio)” value is -3.12.
Take C96A G133U: the “polymerase ribozyme fitness (log ratio)” value is -3.9.
C118U A142G U148C: the “polymerase ribozyme fitness (log ratio)” value is -2.86.
For the variant C96A U146A U148A, the “polymerase ribozyme fitness (log ratio)” value was -4.17.
Turning to C125U U146G, the “polymerase ribozyme fitness (log ratio)” value is -1.15.
As to C103A A107U U134A, the “polymerase ribozyme fitness (log ratio)” value was not above -4.2.
The figure for C108U G133U is -3.96.
The result for G124C G136A reads -2.84; that for A121U, -0.0614; that for A121C, 0.117.
As to A121G, the “polymerase ribozyme fitness (log ratio)” value is -0.0563.
With G112A U148C, the “polymerase ribozyme fitness (log ratio)” value was -4.13.
In the case of C99U U104A U109C A115G, the “polymerase ribozyme fitness (log ratio)” value is -3.79.
Regarding A121G G143A A147U, the “polymerase ribozyme fitness (log ratio)” value is -1.46.
The result for A107U C118G A147U C149G U151G reads not above -4.2; that for C96A G140U, -3.47; that for G126U U135C, -1.61.
On to C99A U146G, for which the “polymerase ribozyme fitness (log ratio)” value is -1.41.
The result for C99A U146A reads -1.15; that for C99U G141A, -0.231; that for U101A C105U C114A, -3.17.
As for C96U A147U, the “polymerase ribozyme fitness (log ratio)” value stood at 1.21.
Consider C96U A147G, for which the “polymerase ribozyme fitness (log ratio)” value was -1.18.
Take C103G U130A: the “polymerase ribozyme fitness (log ratio)” value is -4.04.
As for C95U C103G, the “polymerase ribozyme fitness (log ratio)” value was -1.69.
On to C96G A137U, for which the “polymerase ribozyme fitness (log ratio)” value was -4.
For C108A A121U, the “polymerase ribozyme fitness (log ratio)” value was not above -4.2.
The result for C96A A106C reads -0.591; that for A107G G140U U151A, not above -4.2; that for C103A U109G, -3.53.
The figure for U127G A147U is -3.92; for A110G U134G it is -4.07; for C125U G143U it is -3.2.
For C116U U146A, the “polymerase ribozyme fitness (log ratio)” value was -0.753.
The result for C96U C114U A150U reads -3.94.
Regarding A97U U148C, the “polymerase ribozyme fitness (log ratio)” value was -1.51.
Take A107G G143U: the “polymerase ribozyme fitness (log ratio)” value is -3.81.
Regarding C96U A121U U139A, the “polymerase ribozyme fitness (log ratio)” value was not above -4.2.
With G128C, the “polymerase ribozyme fitness (log ratio)” value is -2.21.
For the variant G128U, the “polymerase ribozyme fitness (log ratio)” value is -2.53.
Regarding G128A, the “polymerase ribozyme fitness (log ratio)” value was -2.74.
C105A C129G: the “polymerase ribozyme fitness (log ratio)” value is not above -4.2.
U101G A120G: the “polymerase ribozyme fitness (log ratio)” value was -0.0391.
The result for A119U A121G U135C U146A A150G reads -3.77; that for C114U G124U, -3.13.
The figure for C114U G124C is -4.11; for C129G G143A it is -2.23; for A97U C132A it is -2.65.
The result for C105U A120G A122C reads 0.479.
Regarding C114A C132U G133C, the “polymerase ribozyme fitness (log ratio)” value is -3.96.
On to C114U A122G, for which the “polymerase ribozyme fitness (log ratio)” value is -1.87.
On to G126A A142C, for which the “polymerase ribozyme fitness (log ratio)” value is -3.28.
As to C96A A122C U139G A150C, the “polymerase ribozyme fitness (log ratio)” value was -3.67.
